Assay results from US20240376180A1 (DEUTSCHES ZENTRUM FUR NEURODEGENERATIVE ERKRANKUNGEN E V …, published 2024).

Assays:
[1] = target: T1, Fc fusion protein of the RBD-SD1 region of HCoV-OC43 (HCoV-OC43, UniProt P36334 318-675); experiment: ELISA on captured RBD-SD1-Fc
T1 construct: domain: RBD-SD1 region
T1 sequence: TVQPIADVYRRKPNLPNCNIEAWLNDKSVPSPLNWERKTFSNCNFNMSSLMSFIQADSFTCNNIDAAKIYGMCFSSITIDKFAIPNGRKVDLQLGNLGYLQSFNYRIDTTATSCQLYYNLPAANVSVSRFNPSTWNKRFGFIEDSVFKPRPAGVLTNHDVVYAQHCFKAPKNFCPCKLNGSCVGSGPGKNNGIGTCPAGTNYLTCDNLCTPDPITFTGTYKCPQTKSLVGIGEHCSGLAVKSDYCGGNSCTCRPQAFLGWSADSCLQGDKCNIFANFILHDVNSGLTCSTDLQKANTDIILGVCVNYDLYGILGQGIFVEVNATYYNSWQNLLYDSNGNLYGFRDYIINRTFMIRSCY

[2] = target: Fc fusion protein of the RBD-SD1 region of SARS-CoV (SARS-CoV, UniProt P59594 306-577); experiment: ELISA on captured RBD-SD1-Fc
[3] = target: T2, Fc fusion protein of the RBD-SD1 region of HCoV-HKU1 (HCoV-HKU1, UniProt Q5MQD0 310-677); experiment: ELISA on captured RBD-SD1-Fc
T2 construct: domain: RBD-SD1 region
T2 sequence: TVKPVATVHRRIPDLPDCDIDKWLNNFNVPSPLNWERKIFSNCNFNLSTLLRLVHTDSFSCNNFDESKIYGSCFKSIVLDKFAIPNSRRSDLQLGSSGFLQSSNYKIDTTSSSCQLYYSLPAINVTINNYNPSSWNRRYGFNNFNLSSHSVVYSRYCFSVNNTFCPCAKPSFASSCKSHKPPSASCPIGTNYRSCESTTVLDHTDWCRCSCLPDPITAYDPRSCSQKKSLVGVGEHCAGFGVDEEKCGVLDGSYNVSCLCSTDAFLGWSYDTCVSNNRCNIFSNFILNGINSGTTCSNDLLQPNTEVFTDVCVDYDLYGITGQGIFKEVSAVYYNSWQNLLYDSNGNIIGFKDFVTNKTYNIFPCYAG

[4] = target: T3, Fc fusion protein of the RBD-SD1 region of MERS-CoV (MERS-CoV, UniProt K9N5Q8 367-655); experiment: ELISA on captured RBD-SD1-Fc
T3 sequence: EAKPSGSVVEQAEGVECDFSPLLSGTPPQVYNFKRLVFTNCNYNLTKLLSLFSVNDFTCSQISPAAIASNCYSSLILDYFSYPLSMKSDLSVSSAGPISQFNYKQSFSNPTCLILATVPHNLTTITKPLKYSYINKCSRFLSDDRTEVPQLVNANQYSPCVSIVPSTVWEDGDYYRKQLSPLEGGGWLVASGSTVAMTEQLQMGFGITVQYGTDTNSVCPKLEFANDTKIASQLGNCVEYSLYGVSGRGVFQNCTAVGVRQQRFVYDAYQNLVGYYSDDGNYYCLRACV

[5] = target: beta-2 microglobulin (Homo sapiens (Human), UniProt P61769 21-119); experiment: routine laboratory ELISA
beta-2 microglobulin, sequence (P61769 21-119 limits assumed): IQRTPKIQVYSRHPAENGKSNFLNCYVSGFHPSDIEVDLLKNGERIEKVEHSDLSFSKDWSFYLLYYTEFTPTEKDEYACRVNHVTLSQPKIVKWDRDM

[6] = target: T4, Spike protein of authentic SARS-CoV-2 (Munich isolate 984) (SARS-CoV-2, UniProt P0DTC2 14-1273); experiment: cell-based or functional assay; set-up: IC90 Neutralizing Assay: unit not given beside the values
[7] = target: T4, Spike protein of authentic SARS-CoV-2 …; experiment: cell-based or functional assay
[8] = target: SARS-CoV-2 S protein-RBD-mFc (SARS-CoV-2, UniProt P0DTC2 319-537)
[9] = target: SARS-CoV spike on S-pseudotyped MLV virions (SARS-CoV); experiment: cell-based or functional assay
[10] = target: SARS-CoV-2 spike on S-pseudotyped MLV virions (SARS-CoV-2, UniProt P0DTC2 14-1255); experiment: cell-based or functional assay

B1: HK CV07-287 (antibody, V domains shown)
VH: QVQLVQSGPEVKKPGTSVKVSCKASGFTFTSSAMQWVRQARGQRLEWIGWIVVGSGNTNYAQKFQERVTITRDMSTSTAYMELSSLRSEDTAVYYCAAPYCSSTNCYDAFDIWGQGTMVTVSS
VL: not shown
binding result [1]: no binding (tested: 1 µg/ml)
binding result [2]: no binding (tested: 1 µg/ml)
binding result [3]: no binding (tested: 1 µg/ml)
binding result [4]: no binding (tested: 1 µg/ml)
binding result [5]: no binding (tested: 50 µg/ml)
IC90 Neutralizing Assay [6]: > 500
IC50 (PRNT, authentic SARS-CoV-2) [7]: 0.0417 µg/mL
Kd [8]: 160 pM

B2: HL CV07-315 (antibody, V domains shown)
VH: EVQLVESGGGLVQPGRSLRLSCAASGFTFDDYAMHWVRQAPGKGLEWVSGISWNSGSIGYADSVKGRFTISRDNAKNSLYLQMNSLRAEDTALYYCAKDFLWDLHPPRYYGMDVWGQGTTVTVSS
VL: QSVLTRPPSVSAAPGQKVTISCSGSSSNIGNNYVSWYQQLPGTAPKLLIYENNKRPSGIPDRFSGSKSGTSATLGITGLQTGDEADYYCGTWDSSLNGVFGGGTKLTVLG
binding result [1]: no binding (tested: 1 µg/ml)
binding result [2]: no binding (tested: 1 µg/ml)
binding result [3]: no binding (tested: 1 µg/ml)
binding result [4]: no binding (tested: 1 µg/ml)
binding result [5]: no binding (tested: 50 µg/ml)
IC50 Neutralizing Assay [6]: ~0.05 µg/mL
IC50 (PRNT, authentic SARS-CoV-2) [7]: 0.0249 µg/mL
Kd [8]: 11.2 pM

B3: HL CV07-250 (antibody, V domains shown)
VH: QVQLVQSEAEVKEPGASVEVSCKASGYNFTNFAISWVRQAPGQGLEWMGWISGYNGDTNSAQKFLGRVTMTTDTSTTTAYMELRSLRSDDTAVYYCAGSDNYGFPYNGMDVWGQGTTVTVSS
VL: QSALTQPPSASGSPGQSVTISCTGTSSDLGAYHFVTWYQHYPGKAPKVMIYGVRKRPSGVPDRFSGSKSGNTASLTVSGLQDEDEADYYCSSYAGNNDFVFGGGTKLTVLS
binding result [1]: no binding (tested: 1 µg/ml)
binding result [2]: no binding (tested: 1 µg/ml)
binding result [3]: no binding (tested: 1 µg/ml)
binding result [4]: no binding (tested: 1 µg/ml)
binding result [5]: no binding (tested: 50 µg/ml)
IC90 Neutralizing Assay [6]: > 500
IC50 (PRNT, authentic SARS-CoV-2) [7]: 0.0035 µg/mL
Kd [8]: 56.4 pM

B4: HK CV38-142 (antibody, V domains shown)
VH: EVQLVQSGAEVKKPGESLKISCQGSGYSFTSYWIGWVRQMPGKGLEWMGIIYPGESDTRYSSSFQGHVTISADKSISTAYLQWSSLKASDTAMYYCARIRGVYSSGWIGGDYWGQGTLVTVSS
VL: not shown
binding result [5]: no binding (tested: 50 µg/ml)
IC50 Neutralizing Assay [6]: ~0.05 µg/mL
IC50 (PRNT, authentic SARS-CoV-2) [7]: 0.0232 µg/mL
pseudovirus neutralization assay, potency (IC50) [9]: 1.4 µg/mL
pseudovirus neutralization assay, potency (IC50) [10]: 3.5 µg/mL

B5: HL CV07-283 (antibody, V domains shown)
VH: QVQLVQSGAEVKKPGASAKVSCKASGYTFTGYYIHWVRQAPGQGLEWMGLINPISGGTNYAQKFQDRVTMTRDTSISTAYMELSRLRSDDTAVYYCVRGPFYYDSSGPLGGMDVWGQGTTVTVSS
VL: QSALTQPASVSGSPGQSITISCTGTSGDVGGYNYVSWYQQHPGKAPKLMIYEVSNRPSGVSNRFSGSKSGNTASLTISGLQAEDEADYYCSSYTSSSTYVFGTGTKVTVLG
binding result [1]: no binding (tested: 1 µg/ml)
binding result [2]: no binding (tested: 1 µg/ml)
binding result [3]: no binding (tested: 1 µg/ml)
binding result [4]: no binding (tested: 1 µg/ml)
binding result [5]: no binding (tested: 50 µg/ml)
IC50 Neutralizing Assay [6]: ~0.05 µg/mL
IC90 Neutralizing Assay [6]: > 500
IC50 (PRNT, authentic SARS-CoV-2) [7]: 0.0169 µg/mL
Kd [8]: 47.5 pM
